Measurements as given in the RNAGym collection of RNA variant scans (doi:10.7554/elife.80360).

B1: Twister Ribozyme (parent)
chain: AACACUGCCAAUGCCGGUCCCAAGCCCGGAUAAAAGUGGAGGGGGCGG

Variants of: B1
Assay: self-cleavage, relative activity (ratio to wild type); higher = more cleavage; co-transcriptional

Variant	self-cleavage
AACACUGCCAAUGCCGGUCCCAAGCCCGGAUACAAAUGGAGGGGGCGG [A33C G36A]	0.175
AACACUGCCAAUGCCGGUCCCAAGCCCGGAUUAAAGUGGAGGGGUCGG [A32U G45U]	0.819
AACACUGCCAAUGCCGGUCCCAAGCCCGGAUUAAAGUGGAGGGGGAGG [A32U C46A]	0.873
AACACUGCCAAUGCCGGUCCCAAGCCCGGAUUAAAGUGGAGGGGGGGG [A32U C46G]	0.973
AACACUGCCAAUGCCGGUCCCAAGCCCGGAUGAAAGUGGAGGGGGCUG [A32G G47U]	0.893
AACACUGCCAAUGCCGGUCCCAAGCCCGGAUGAAAGUGGAGGGGGCAG [A32G G47A]	0.924
AACACUGCCAAUGCCGGUCCCAAGCCCGGAUCAAAUUGGAGGGGGCGG [A32C G36U]	0.184
AACACUGCCAAUGCCGGUCCCAAGCCCGGAUGAAAGUGGAGGAGGCGG [A32G G43A]	0.284
AACACUGCCAAUGCCGGUCCCAAGCCCGGAUGAAAGUGGAGGUGGCGG [A32G G43U]	0.439
AACACUGCCAAUGCCGGUCCCAAGCCCGGAUUGAAGUGGAGGGGGCGG [A32U A33G]	0.891
AACACUGCCAAUGCCGGUCCCAAGCCCGGAUACAAGUGUAGGGGGCGG [A33C G39U]	0.21
AACACUGCCAAUGCCGGUCCCAAGCCCGGAUACAAGUGCAGGGGGCGG [A33C G39C]	0.12
AACACUGCCAAUGCCGGUCCCAAGCCCGGAUGAAAGUGGAGGGGGCGU [A32G G48U]	1.1
AACACUGCCAAUGCCGGUCCCAAGCCCGGAUGAAAGUGGAGGGGGCGC [A32G G48C]	0.976
AACACUGCCAAUGCCGGUCCCAAGCCCGGAUGAAAGUGGAGGGGGCGA [A32G G48A]	0.925
AACACUGCCAAUGCCGGUCCCAAGCCCGGAUGAAAGUUGAGGGGGCGG [A32G G38U]	0.846
AACACUGCCAAUGCCGGUCCCAAGCCCGGAGAAAAGUGGAGGGUGCGG [U31G G44U]	0.882
AACACUGCCAAUGCCGGUCCCAAGCCCGGAUUAAAGUGGAGGUGGCGG [A32U G43U]	0.384
AACACUGCCAAUGCCGGUCCCAAGCCCGGAUUAAAGUGGAGGAGGCGG [A32U G43A]	0.239
AACACUGCCAAUGCCGGUCCCAAGCCCGGAGAAAAGUGGAGGGGACGG [U31G G45A]	0.99
AACACUGCCAAUGCCGGUCCCAAGCCCGGAUGAUAGUGGAGGGGGCGG [A32G A34U]	0.85
AACACUGCCAAUGCCGGUCCCAAGCCCGGAUGAGAGUGGAGGGGGCGG [A32G A34G]	0.679

Variant	self-cleavage
AACACUGCCAAUGCCGGUCCCAAGCCCGGAUCAAAGUCGAGGGGGCGG [A32C G38C]	0.89
AACACUGCCAAUGCCGGUCCCAAGCCCGGAUCAAAGUAGAGGGGGCGG [A32C G38A]	1.03
AACACUGCCAAUGCCGGUCCCAAGCCCGGAGAAAAGUGGAGGAGGCGG [U31G G43A]	0.324
AACACUGCCAAUGCCGGUCCCAAGCCCGGAUUAAAGUCGAGGGGGCGG [A32U G38C]	1.12
AACACUGCCAAUGCCGGUCCCAAGCCCGGAUACACGUGGAGGGGGCGG [A33C A35C]	0.522
AACACUGCCAAUGCCGGUCCCAAGCCCGGAUACAGGUGGAGGGGGCGG [A33C A35G]	0.707
AACACUGCCAAUGCCGGUCCCAAGCCCGGAUACAUGUGGAGGGGGCGG [A33C A35U]	0.936
AACACUGCCAAUGCCGGUCCCAAGCCCGGAUUAAAGUGGAGUGGGCGG [A32U G42U]	0.298
AACACUGCCAAUGCCGGUCCCAAGCCCGGAUUAAAGUGGAGGGGGCGC [A32U G48C]	1.2
AACACUGCCAAUGCCGGUCCCAAGCCCGGAUUAAAGUGGAGGGGGCGU [A32U G48U]	0.977
AACACUGCCAAUGCCGGUCCCAAGCCCGGAUGAAAGUGGUGGGGGCGG [A32G A40U]	0.117
AACACUGCCAAUGCCGGUCCCAAGCCCGGAUGAAAGUGGCGGGGGCGG [A32G A40C]	0.226
AACACUGCCAAUGCCGGUCCCAAGCCCGGAUUAAAGUGGACGGGGCGG [A32U G41C]	0.284
AACACUGCCAAUGCCGGUCCCAAGCCCGGAUUAAAGUGGAUGGGGCGG [A32U G41U]	0.659
AACACUGCCAAUGCCGGUCCCAAGCCCGGAUCAAAGGGGAGGGGGCGG [A32C U37G]	0.625
AACACUGCCAAUGCCGGUCCCAAGCCCGGAUUAAAGUGGAGGGGGCAG [A32U G47A]	0.883
AACACUGCCAAUGCCGGUCCCAAGCCCGGAUUAAAGUGGAGGGGGCUG [A32U G47U]	0.83
AACACUGCCAAUGCCGGUCCCAAGCCCGGAUUAAAGUGGAGGGGGCCG [A32U G47C]	0.583
AACACUGCCAAUGCCGGUCCCAAGCCCGGAGAAAAGUGGAGGGGGCUG [U31G G47U]	0.92
AACACUGCCAAUGCCGGUCCCAAGCCCGGAUUAAAAUGGAGGGGGCGG [A32U G36A]	0.701
AACACUGCCAAUGCCGGUCCCAAGCCCGGAGAAAAGUGAAGGGGGCGG [U31G G39A]	0.623
AACACUGCCAAUGCCGGUCCCAAGCCCGGAGAAAAGUGCAGGGGGCGG [U31G G39C]	0.144

Variant	self-cleavage
AACACUGCCAAUGCCGGUCCCAAGCCCGGAUGAAAUUGGAGGGGGCGG [A32G G36U]	0.244
AACACUGCCAAUGCCGGUCCCAAGCCCGGAUGAAACUGGAGGGGGCGG [A32G G36C]	0.403
AACACUGCCAAUGCCGGUCCCAAGCCCGGAUGAAAGUGGAGGGUGCGG [A32G G44U]	1.06
AACACUGCCAAUGCCGGUCCCAAGCCCGGAUUAAAGCGGAGGGGGCGG [A32U U37C]	0.669
AACACUGCCAAUGCCGGUCCCAAGCCCGGAUUAAAGAGGAGGGGGCGG [A32U U37A]	0.74
AACACUGCCAAUGCCGGUCCCAAGCCCGGAUUAAAGGGGAGGGGGCGG [A32U U37G]	0.737
AACACUGCCAAUGCCGGUCCCAAGCCCGGAGAAAAGUAGAGGGGGCGG [U31G G38A]	0.937
AACACUGCCAAUGCCGGUCCCAAGCCCGGAGAAAAGUUGAGGGGGCGG [U31G G38U]	0.778
AACACUGCCAAUGCCGGUCCCAAGCCCGGAUCAAGGUGGAGGGGGCGG [A32C A35G]	0.8
AACACUGCCAAUGCCGGUCCCAAGCCCGGAUGAAAGGGGAGGGGGCGG [A32G U37G]	0.716
AACACUGCCAAUGCCGGUCCCAAGCCCGGAUCAAAGUGGAGGGGGUGG [A32C C46U]	0.863
AACACUGCCAAUGCCGGUCCCAAGCCCGGAUGAAAGUGGAGGGGCCGG [A32G G45C]	0.559
AACACUGCCAAUGCCGGUCCCAAGCCCGGAUGCAAGUGGAGGGGGCGG [A32G A33C]	0.833
AACACUGCCAAUGCCGGUCCCAAGCCCGGAUGUAAGUGGAGGGGGCGG [A32G A33U]	0.914
AACACUGCCAAUGCCGGUCCCAAGCCCGGAUGAAAGUGGAGGGGGCGG [A32G]	0.961
AACACUGCCAAUGCCGGUCCCAAGCCCGGAUUAAAGUGGAGGGGGCGG [A32U]	0.975
AACACUGCCAAUGCCGGUCCCAAGCCCGGAUCAAAGUGGAGGGGGCGG [A32C]	0.967
AACACUGCCAAUGCCGGUCCCAAGCCCGGAUCAAAGUGGUGGGGGCGG [A32C A40U]	0.123
AACACUGCCAAUGCCGGUCCCAAGCCCGGAUCAAAGUGGGGGGGGCGG [A32C A40G]	0.134
AACACUGCCAAUGCCGGUCCCAAGCCCGGAUUAAAGUGGAGGGCGCGG [A32U G44C]	0.934
AACACUGCCAAUGCCGGUCCCAAGCCCGGAGAAAAGUGGAGGGGGCGC [U31G G48C]	1.19
AACACUGCCAAUGCCGGUCCCAAGCCCGGAUGAAAGUGAAGGGGGCGG [A32G G39A]	0.48

Variant	self-cleavage
AACACUGCCAAUGCCGGUCCCAAGCCCGGAUGAAAGUGUAGGGGGCGG [A32G G39U]	0.158
AACACUGCCAAUGCCGGUCCCAAGCCCGGAUGAAAGUGCAGGGGGCGG [A32G G39C]	0.155
AACACUGCCAAUGCCGGUCCCAAGCCCGGAUCAAAGUGGAGGGGGCGA [A32C G48A]	0.929
AACACUGCCAAUGCCGGUCCCAAGCCCGGAUCAAAGUGGAGGGGGCGC [A32C G48C]	1.12
AACACUGCCAAUGCCGGUCCCAAGCCCGGAUCAAAGUGGAGGGGGCGU [A32C G48U]	0.893
AACACUGCCAAUGCCGGUCCCAAGCCCGGAUCAAAGUGGAGGUGGCGG [A32C G43U]	0.344
AACACUGCCAAUGCCGGUCCCAAGCCCGGAUCAAAGUGGAUGGGGCGG [A32C G41U]	0.603
AACACUGCCAAUGCCGGUCCCAAGCCCGGAUCAAAGUGGAAGGGGCGG [A32C G41A]	0.556
AACACUGCCAAUGCCGGUCCCAAGCCCGGAUCAAAGUGGACGGGGCGG [A32C G41C]	0.326
AACACUGCCAAUGCCGGUCCCAAGCCCGGAUCAAAGUGGAGCGGGCGG [A32C G42C]	0.326
AACACUGCCAAUGCCGGUCCCAAGCCCGGAUCAAAGUGGAGAGGGCGG [A32C G42A]	0.289
AACACUGCCAAUGCCGGUCCCAAGCCCGGAUGAAGGUGGAGGGGGCGG [A32G A35G]	0.718
AACACUGCCAAUGCCGGUCCCAAGCCCGGAUGAAUGUGGAGGGGGCGG [A32G A35U]	0.986
AACACUGCCAAUGCCGGUCCCAAGCCCGGAGAAAAGGGGAGGGGGCGG [U31G U37G]	0.734
AACACUGCCAAUGCCGGUCCCAAGCCCGGAUCCAAGUGGAGGGGGCGG [A32C A33C]	0.767
AACACUGCCAAUGCCGGUCCCAAGCCCGGAUCUAAGUGGAGGGGGCGG [A32C A33U]	0.865
AACACUGCCAAUGCCGGUCCCAAGCCCGGAUUAAUGUGGAGGGGGCGG [A32U A35U]	1.13
AACACUGCCAAUGCCGGUCCCAAGCCCGGAUACAAGUGGUGGGGGCGG [A33C A40U]	0.1
AACACUGCCAAUGCCGGUCCCAAGCCCGGAUACAAGUGGGGGGGGCGG [A33C A40G]	0.182
AACACUGCCAAUGCCGGUCCCAAGCCCGGAUACAAGUGGCGGGGGCGG [A33C A40C]	0.131
AACACUGCCAAUGCCGGUCCCAAGCCCGGAUUAAAGUGCAGGGGGCGG [A32U G39C]	0.144
AACACUGCCAAUGCCGGUCCCAAGCCCGGAUUAAAGUGUAGGGGGCGG [A32U G39U]	0.158

Variant	self-cleavage
AACACUGCCAAUGCCGGUCCCAAGCCCGGAUUAAAGUGAAGGGGGCGG [A32U G39A]	0.596
AACACUGCCAAUGCCGGUCCCAAGCCCGGAGAAAAGUGGACGGGGCGG [U31G G41C]	0.278
AACACUGCCAAUGCCGGUCCCAAGCCCGGAGAAAAGUGGAUGGGGCGG [U31G G41U]	0.763
AACACUGCCAAUGCCGGUCCCAAGCCCGGAGAAAAGUGGAGUGGGCGG [U31G G42U]	0.447
AACACUGCCAAUGCCGGUCCCAAGCCCGGAUUAGAGUGGAGGGGGCGG [A32U A34G]	0.869
AACACUGCCAAUGCCGGUCCCAAGCCCGGAUUAUAGUGGAGGGGGCGG [A32U A34U]	0.89
AACACUGCCAAUGCCGGUCCCAAGCCCGGAUUAAAGUGGGGGGGGCGG [A32U A40G]	0.108
AACACUGCCAAUGCCGGUCCCAAGCCCGGAUUAAAGUGGCGGGGGCGG [A32U A40C]	0.204
AACACUGCCAAUGCCGGUCCCAAGCCCGGAUACAAGUGGAGAGGGCGG [A33C G42A]	0.177
AACACUGCCAAUGCCGGUCCCAAGCCCGGAUACUAGUGGAGGGGGCGG [A33C A34U]	0.969
AACACUGCCAAUGCCGGUCCCAAGCCCGGAUCAAAGUGGAGGGGACGG [A32C G45A]	0.95
AACACUGCCAAUGCCGGUCCCAAGCCCGGAUCAAAGUGGAGGGGCCGG [A32C G45C]	0.546
AACACUGCCAAUGCCGGUCCCAAGCCCGGAUCAAAGUGGAGGGGUCGG [A32C G45U]	0.758
AACACUGCCAAUGCCGGUCCCAAGCCCGGAUACAAGUUGAGGGGGCGG [A33C G38U]	0.72
AACACUGCCAAUGCCGGUCCCAAGCCCGGAUACAAGUAGAGGGGGCGG [A33C G38A]	0.867
AACACUGCCAAUGCCGGUCCCAAGCCCGGAUCAUAGUGGAGGGGGCGG [A32C A34U]	0.786
AACACUGCCAAUGCCGGUCCCAAGCCCGGAUCAGAGUGGAGGGGGCGG [A32C A34G]	0.761
AACACUGCCAAUGCCGGUCCCAAGCCCGGAUACAAGUGGAUGGGGCGG [A33C G41U]	0.265
AACACUGCCAAUGCCGGUCCCAAGCCCGGAGAAAACUGGAGGGGGCGG [U31G G36C]	0.712
AACACUGCCAAUGCCGGUCCCAAGCCCGGAGAAAAAUGGAGGGGGCGG [U31G G36A]	0.662
